Where no end group is shown, it is not given here. [ ]: non-standard residue; d: D form. The star is where a group is joined. Hexanoyl = CCCCCC(=O)*; Aib = CC(C)(N)C(=O)O
T1: human VPAC2 receptor (human, UniProt P41587 24-438)
T1 sequence (looked up): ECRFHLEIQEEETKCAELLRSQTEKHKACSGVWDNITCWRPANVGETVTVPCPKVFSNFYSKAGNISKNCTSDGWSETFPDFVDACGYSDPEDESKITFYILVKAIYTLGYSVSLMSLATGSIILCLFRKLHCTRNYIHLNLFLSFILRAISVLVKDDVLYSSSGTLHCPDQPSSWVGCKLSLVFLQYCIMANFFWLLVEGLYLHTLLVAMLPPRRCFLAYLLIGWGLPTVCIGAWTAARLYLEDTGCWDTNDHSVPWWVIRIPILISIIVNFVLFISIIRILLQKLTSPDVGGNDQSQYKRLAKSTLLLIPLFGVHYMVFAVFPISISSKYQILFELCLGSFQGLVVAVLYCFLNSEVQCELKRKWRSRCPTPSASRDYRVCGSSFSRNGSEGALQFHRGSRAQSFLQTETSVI


Biological target: T1, human VPAC2 receptor
Assay: cell-based or functional assay

Binder	EC50 cAMP, Alpha Screen [nM]	EC50 cAMP, DiscoveRx [nM]
Hexanoyl-HSDAVFTDNYTRLRKQVAAKKYLQS[Aib]KNKRYGGPSSGAPPPS (ends and bridges not checked) [P188]	0.32	
Hexanoyl-HSDAVFTDNYTRLRK(Ac)QVAAK(Ac)KYLQSIKNKRYGGPSSGAPPPS [P193]	0.18	
Hexanoyl-HSDAVFTDNYTRLRKQVAAWKYLQSIKNKRYGGPSSGAPPPS [P153]	0.11	
Hexanoyl-HSDAVFTKNYTRLRKQVAAKKYLQSIKNKRYGGPSSGAPPPS [P160]	13.2	
Hexanoyl-HSDAVFTDNYTRLRKQVAAKKYLQLIKNKRYGGPSSGAPPPS [P114]	0.14	
Hexanoyl-HSDAVFTDNYTRLKAQVAAKKYLQSIKNKRYGGPSSGAPPPS [P141]	0.72	
Hexanoyl-HSDAVFTDNYTRLRKQVAAKKYLQNIKNKRYGGPSSGAPPPS [P125]	0.14	
Hexanoyl-HSDAVFTDNYTRLRKQVAAKKYLQWIKNKRYGGPSSGAPPPS [P117]	0.2	
Hexanoyl-HSDAVFTDNYTRLRAQLAAQKYLQSIKNKRYGGPSSGAPPPS [P142]	0.15	
Hexanoyl-HSDAVFTDNYTRLRKQVAAKKYLQSWKNKRYGGPSSGAPPPS [P110]	0.13	
Hexanoyl-HSDAVFTDNYTRLRKQVAAKKYLQSFKNKRYGGPSSGAPPPS [P106]	0.16	
HSDAVFTDNYTRAAAKVAAKKYLQSIKNKRYGGPSSGAPPPS [P88]	1720	> 1000
HSDAVFTDNYTRAKAKVAAKKYLQSIKNKRYGGPSSGAPPPS [P94]	696	> 1000
Hexanoyl-HSDAVFTDNYTRLRAQVAAKKYLQSIKNKRYGGPSSGAPPPS [P139]	0.2	
Hexanoyl-HSDAVFTDNYTRLRKQVAAKKYLQYIKNKRYGGPSSGAPPPS [P127]	0.22	
Hexanoyl-HSDAVFTDNYTRLRKQVAAKKLLQSIKNKRYGGPSSGAPPPS [P132]	3.1	
Hexanoyl-HSDAVFTDNYTRLRRQVAARRYLQSIRNRRYGGPSSGAPPPS [P98]	0.15	
Hexanoyl-HSDAVFTDNYTRLRKQVAAFKYLQSIKNKRYGGPSSGAPPPS [P148]	0.1	
HSDAVFTDNYTREKEKVAAKKYLQSIKNKRYGGPSSGAPPPS [P87]	> 10000	
Hexanoyl-HSDAVFTDNYTRLRAQVAAQKYLQSIKNKRYGGPSSGAPPPS [P138]	0.45	
Hexanoyl-HSDAVFTDNYTRLRKQVAAKKTLQSIKNKRYGGPSSGAPPPS [P131]	22.3	
Hexanoyl-HSDAVFTDNYTKLKKQVAAKKYLQSIKNKKYGGPSSGAPPPS [P103]	0.12	
Hexanoyl-HSDAVFTDNYTRLRKQVAAKKYLQSLKNKRYGGPSSGAPPPS [P107]	0.12	
Hexanoyl-HSDAVFTDNYTRLRKQVAAKKILQSIKNKRYGGPSSGAPPPS [P133]	2.7	

Binder	EC50 cAMP, Alpha Screen [nM]	EC50 cAMP, DiscoveRx [nM]
Hexanoyl-HSDAVFTDNYTRLRKQVAAKKWLQSIKNKRYGGPSSGAPPPS [P129]	0.49	
Hexanoyl-HSDAVFTDNYTRLRKQVAAKKYLQSVKNKRYGGPSSGAPPPS [P109]	0.22	
Hexanoyl-HSDAVFTDNYTRLRKQVALKKYLQSIKNKRYGGPSSGAPPPS [P155]	0.24	
HSDGVFTDNYTRLRKQVAAKKYLQSIKNKRYGGPSSGAPPPS [P102]	27.4	
Hexanoyl-HSDAVFTDNYTRLRKQVAAKKYLQQIKNKRYGGPSSGAPPPS [P124]	0.09	
Hexanoyl-HSDAVFTANYTRLRKQVAAKKYLQSIKNKRYGGPSSGAPPPS [P158]	0.11	
Hexanoyl-H[dA]DAVFTDNYTRLRKQVAAKKYLQSIKNKRYGGPSSGAPPPS [P101]	0.21	
Hexanoyl-HSDAVFTDNYTRLRKQVAAKKYLQIIKNKRYGGPSSGAPPPS [P113]	0.26	
Hexanoyl-HSDAVFTDNYTRLRKQVAAKKYLQSTKNKRYGGPSSGAPPPS [P108]	0.27	
Hexanoyl-HSDAVFTDNYTRLRKQVAAVKYLQSIKNKRYGGPSSGAPPPS [P146]	0.17	
Hexanoyl-HSDAVFTDNYTRLRKQVAALKYLQSIKNKRYGGPSSGAPPPS [P151]	0.07	
Hexanoyl-HSDAVFTDNYTRLRKQVAAKKYLQVIKNKRYGGPSSGAPPPS [P116]	0.12	
Hexanoyl-HVDAVFTDNYTRLRKQVAAKKYLQSIKNKRYGGPSSGAPPPS [P99]	0.14	
Hexanoyl-HSDAVFTDNYTRLRKQVAAIKYLQSIKNKRYGGPSSGAPPPS [P149]	0.41	
Hexanoyl-HSDAVFTDNYTRLRKQVAAYKYLQSIKNKRYGGPSSGAPPPS [P147]	0.13	
Hexanoyl-HSDAVFTENYTRLRKQVAAKKYLQSIKNKRYGGPSSGAPPPS [P159]	0.17	
Hexanoyl-HSDAVFTDNYTRLRKQVAAKKYLQFIKNKRYGGPSSGAPPPS [P112]	0.16	
Hexanoyl-HSDAVFTDNYTRLRKQVAAKKYLQSYKNKRYGGPSSGAPPPS [P111]	0.34	
Hexanoyl-HSDAVFTDNYTRLRKQVAAKKFLQSIKNKRYGGPSSGAPPPS [P130]	0.77	
Hexanoyl-HSDAVFTDNYTRLRKQVAATKYLQSIKNKRYGGPSSGAPPPS [P152]	0.17	
HSDAVFTDNYTRLLAKVAAKKYLQSIKNKRYGGPSSGAPPPS [P89]	1.23	0.7
Hexanoyl-HSDAVFTDNYTRLRKQVAAKKVLQSIKNKRYGGPSSGAPPPS [P134]	5.47	
MHSDAVFTDQYTRLRKQVAAKKYLQSIKQKRYGGPSSGAPPPS (N-terminal methionine added (M-)) [P100]	0.28	
IHSDAVFTDNYTRLRKQVAAKKYLQSIKNKRYGGPSSGAPPPS (N-terminal isoleucine added (I-)) [P105]	8.33	
